From paper PMC7952905

Target: human ACE2 extracellular domain (19-615) (human) (UniProt Q9BYF1)
Assay: SPR

Chain of human ACE2 extracellular domain (19-615) (human) (Q9BYF1 19-615): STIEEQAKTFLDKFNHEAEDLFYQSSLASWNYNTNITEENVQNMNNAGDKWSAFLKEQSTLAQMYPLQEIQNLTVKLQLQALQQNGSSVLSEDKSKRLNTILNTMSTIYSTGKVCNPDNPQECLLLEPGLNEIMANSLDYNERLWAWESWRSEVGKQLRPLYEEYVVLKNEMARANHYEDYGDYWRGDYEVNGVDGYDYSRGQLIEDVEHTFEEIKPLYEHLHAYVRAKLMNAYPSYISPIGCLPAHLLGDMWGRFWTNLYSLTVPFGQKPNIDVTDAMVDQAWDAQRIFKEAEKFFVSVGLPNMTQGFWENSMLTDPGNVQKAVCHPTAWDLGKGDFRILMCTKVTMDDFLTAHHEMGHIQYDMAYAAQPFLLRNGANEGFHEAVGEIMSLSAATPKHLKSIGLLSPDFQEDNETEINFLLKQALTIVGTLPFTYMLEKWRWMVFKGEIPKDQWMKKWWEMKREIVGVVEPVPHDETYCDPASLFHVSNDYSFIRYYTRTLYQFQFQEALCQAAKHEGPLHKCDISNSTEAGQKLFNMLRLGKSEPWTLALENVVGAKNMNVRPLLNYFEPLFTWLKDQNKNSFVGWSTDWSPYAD

PCoV_GX RBD (331-524) (domain or fragment)
Kd: 2.7 nM
